Read-outs that look alike come from different tables or passages of the source.
B1: (dT)45 (ssDNA)
DNA: TTTTTTTTTTTTTTTTTTTTTTTTTTTTTTTTTTTTTTTTTTTTT
B2: (dT)30 (ssDNA)
DNA: TTTTTTTTTTTTTTTTTTTTTTTTTTTTTT
B3: (dT)25 (ssDNA)
DNA: TTTTTTTTTTTTTTTTTTTTTTTTT
B4: (dT)15 (ssDNA)
DNA: TTTTTTTTTTTTTTT

Legend:
Test in all cases: smFRET
[1] = target: T1, human RPA (RPA70-RPA32-RPA14) (human, UniProt P27694;P15927;P35244 1-616;1-270;1-121)
yeast RPA = yeast RPA (Saccharomyces cerevisiae, UniProt P22336;P26754;P26755 1-621;1-273;1-122)
[2] = target: T1, human RPA (RPA70-RPA32-RPA14); remark: listed apart in the source

T1 sequence (P27694 whole entry, chain 1 of 3): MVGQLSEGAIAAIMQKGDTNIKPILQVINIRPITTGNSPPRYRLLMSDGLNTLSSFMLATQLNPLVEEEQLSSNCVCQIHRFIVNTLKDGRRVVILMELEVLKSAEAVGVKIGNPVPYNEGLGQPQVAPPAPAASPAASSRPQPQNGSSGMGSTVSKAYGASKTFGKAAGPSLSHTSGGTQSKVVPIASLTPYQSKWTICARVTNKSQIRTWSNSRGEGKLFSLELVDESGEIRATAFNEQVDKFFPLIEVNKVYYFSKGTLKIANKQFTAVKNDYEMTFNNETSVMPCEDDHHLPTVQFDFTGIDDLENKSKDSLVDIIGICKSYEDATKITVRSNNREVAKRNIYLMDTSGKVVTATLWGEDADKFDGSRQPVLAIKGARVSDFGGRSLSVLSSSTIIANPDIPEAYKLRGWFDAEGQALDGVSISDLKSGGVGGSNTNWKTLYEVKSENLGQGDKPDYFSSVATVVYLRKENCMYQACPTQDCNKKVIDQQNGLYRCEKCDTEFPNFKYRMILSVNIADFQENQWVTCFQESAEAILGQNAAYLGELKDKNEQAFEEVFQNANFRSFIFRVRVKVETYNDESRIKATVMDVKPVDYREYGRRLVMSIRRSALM
T1 sequence (P15927 whole entry, chain 2 of 3): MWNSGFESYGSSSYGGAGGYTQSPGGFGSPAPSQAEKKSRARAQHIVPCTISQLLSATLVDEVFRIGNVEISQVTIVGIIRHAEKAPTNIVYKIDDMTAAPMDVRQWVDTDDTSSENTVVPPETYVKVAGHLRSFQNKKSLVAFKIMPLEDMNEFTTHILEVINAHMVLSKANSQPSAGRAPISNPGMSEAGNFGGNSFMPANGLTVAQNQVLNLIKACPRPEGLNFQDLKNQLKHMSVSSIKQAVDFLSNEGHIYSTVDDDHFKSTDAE
T1 sequence (P35244 whole entry, chain 3 of 3): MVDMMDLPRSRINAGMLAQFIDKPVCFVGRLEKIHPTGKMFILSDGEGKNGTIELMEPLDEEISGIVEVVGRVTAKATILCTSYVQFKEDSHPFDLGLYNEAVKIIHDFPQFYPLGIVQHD
Sequence of yeast RPA (P22336 whole entry, chain 1 of 3): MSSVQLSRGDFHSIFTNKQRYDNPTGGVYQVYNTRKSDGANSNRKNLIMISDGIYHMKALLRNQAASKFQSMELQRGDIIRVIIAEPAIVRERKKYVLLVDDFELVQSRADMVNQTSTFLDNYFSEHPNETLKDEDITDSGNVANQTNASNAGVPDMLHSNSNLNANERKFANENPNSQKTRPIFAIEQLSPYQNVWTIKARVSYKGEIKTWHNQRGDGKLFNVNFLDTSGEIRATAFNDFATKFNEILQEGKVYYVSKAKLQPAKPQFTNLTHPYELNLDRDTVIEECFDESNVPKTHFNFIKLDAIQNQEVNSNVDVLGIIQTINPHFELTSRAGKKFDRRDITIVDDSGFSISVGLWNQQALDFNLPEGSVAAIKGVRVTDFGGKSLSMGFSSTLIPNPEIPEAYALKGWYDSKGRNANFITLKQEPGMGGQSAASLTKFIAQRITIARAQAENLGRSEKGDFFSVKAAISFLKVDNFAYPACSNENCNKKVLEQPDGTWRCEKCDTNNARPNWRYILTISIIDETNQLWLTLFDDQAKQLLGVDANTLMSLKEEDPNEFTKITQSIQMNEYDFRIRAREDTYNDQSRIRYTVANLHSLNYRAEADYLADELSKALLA
Sequence of yeast RPA (P26754 whole entry, chain 2 of 3): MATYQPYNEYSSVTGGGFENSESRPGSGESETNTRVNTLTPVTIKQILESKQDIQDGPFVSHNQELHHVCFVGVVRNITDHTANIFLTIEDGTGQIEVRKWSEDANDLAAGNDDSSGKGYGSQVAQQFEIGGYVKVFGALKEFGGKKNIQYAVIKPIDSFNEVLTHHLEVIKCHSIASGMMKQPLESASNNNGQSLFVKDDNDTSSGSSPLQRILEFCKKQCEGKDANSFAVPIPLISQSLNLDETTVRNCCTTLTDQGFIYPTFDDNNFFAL
Sequence of yeast RPA (P26755 whole entry, chain 3 of 3): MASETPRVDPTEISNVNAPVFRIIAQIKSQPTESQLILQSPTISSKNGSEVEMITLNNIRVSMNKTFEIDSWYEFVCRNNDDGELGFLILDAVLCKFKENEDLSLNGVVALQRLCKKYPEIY

Row | Binder | binding result [1] | binding result (yeast RPA) | binding result [2]
1 | B1 | binds |  | 
2 | B2 | binds |  | 
3 | B3 |  | binds | binds
4 | B4 | binds |  | 

Reference: PMC11514480
